Laboratory results: publication doi:10.1101/2022.06.04.494830, “The oncogenic fusion protein EWS-FLI1 promotes premature ageing of biomolecular condensates by catalyzing fibril formation” (bioRxiv, 2022)

Target: PU.1 DNA-binding domain (PU.1^DBD, PU.1 168-270) (human, UniProt P17947 168-270)
Assay: NMR titration; 1H,15N-HSQC of 50 uM 15N PU.1 168-270 in 50 mM sodium phosphate pH 6.5, 25 C, titrated with unlabeled EWS^LCD (2 mM stock in 20 mM CAPS pH 11) to 12.5, 25, 50, 100 and 150 uM (~3:1)
Settings: both partners purified

binding result: binds
B1: EWS low-complexity domain (EWS^LCD, EWS 1-264) (domain or fragment)
chain: MASTDYSTYSQAAAQQGYSAYTAQPTQGYAQTTQAYGQQSYGTYGQPTDVSYTQAQTTATYGQTAYATSYGQPPTGYTTPTAPQAYSQPVQGYGTGAYDTTTATVTTTQASYAAQSAYGTQPAYPAYGQQPAATAPTRPQDGNKPTETSQPQSSTGGYNQPSLGYGQSNYSYPQVPGSYPMQPVTAPPSYPPTSYSSTQPTSYDQSSYSQQNTYGQPSSYGQQSSYGQQSSYGQQPPTSYPPQTGSYSQAPSQYSQQSSSYGQQ
notes: In the fluorescence microscopy 1% of the EWS^LCD carried DyLight 650 or 488, attached through a dye-labelled KLPETGG peptide with sortase; also called EWS^LCD,650; EWS^LCD,488; source: E. coli BL21 Star (DE3) or BL21 (DE3) pLysS, purified (IMAC or cation exchange, TEV cleavage, SEC; 20 mM CAPS pH 11); not shown: His tag (6 or 8 x), N-terminal, cleaved
